Consider seven molecules from patent publication US20030130166A1, “Polynucleotide encoding a human junctional adhesion protein (JAM2)” (priority 1999, published 2003).

To fix the notation:
T1: human JAM3 (Junctional Adhesion Molecule 3), endogenous on HSB T cells (human, UniProt Q9BX67 32-310)
T1 construct: whole, on cells; also called cell surface JAM3; 43 kDa protein
T1 sequence (looked up): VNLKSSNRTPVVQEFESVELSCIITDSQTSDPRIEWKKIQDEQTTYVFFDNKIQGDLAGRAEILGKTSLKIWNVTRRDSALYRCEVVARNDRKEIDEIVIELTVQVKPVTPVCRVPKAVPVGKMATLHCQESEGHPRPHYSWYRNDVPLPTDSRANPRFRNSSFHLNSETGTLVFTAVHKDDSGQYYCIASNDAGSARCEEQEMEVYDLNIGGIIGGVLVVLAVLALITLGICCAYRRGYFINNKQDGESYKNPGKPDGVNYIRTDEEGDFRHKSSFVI

B1: JAM2-Fc (extracellular domain of human JAM2 fused to the constant region of mouse IgG-2a, secreted from Sf21 insect cells) (Fc fusion)
chain: FSAPKDQQVVTAVEYQEAILACKTPKKTVSSRLEWKKLGRSVSFVYYQQTLQGDFKNRAEMIDFNIRIKNVTRSDAGKYRCEVSAPSEQGQNLEEDTVTLEVLVAPAVPSCEVPSSALSGTVVELRCQDKEGNPAPEYTWFKDGIRLLENPRLGSQSTNSSYTMNTKTGTLQFNTVSKLDTGEYSCEARNSVGYRRCPGKRMQVDDLNIS
notes: In the assays it was captured on 96 well plates by goat anti-mouse IgG2a; also called recombinant JAM2; JAM2 extracellular domain; not shown: constant region of mouse IgG-2a (mIgG2a) from the modified pFastBac1 vector
B2: JAM2-Fc: extracellular domain of human JAM2 secreted from Sf21 insect cells as a fusion to mIgG2a (protein)
chain: B1 chain
modifications: left off: a dimerising Fc or GST
notes: extracellular domain of human JAM2 secreted from Sf21 insect cells as a fusion to mIgG2a
B3: soluble JAM3 (JAM3 ectodomain from a JAM3-Fc fusion digested with thrombin and purified to remove the Fc) (receptor, human, UniProt Q9BX67 32-241, looked up)
chain: VNLKSSNRTPVVQEFESVELSCIITDSQTSDPRIEWKKIQDEQTTYVFFDNKIQGDLAGRAEILGKTSLKIWNVTRRDSALYRCEVVARNDRKEIDEIVIELTVQVKPVTPVCRVPKAVPVGKMATLHCQESEGHPRPHYSWYRNDVPLPTDSRANPRFRNSSFHLNSETGTLVFTAVHKDDSGQYYCIASNDAGSARCEEQEMEVYDLN
notes: extracellular domain; It was added at a 10-fold molar ratio; also called soluble JAM3 ectodomain
B4: TBC 772, cyclic hexapeptide (C*WLDVC*), antagonist of alpha 4 integrins (peptide)
peptide: CWLDVC
modifications: bridge 1-6; also: cyclic hexapeptide, bond type between C* residues not given here
B5: N-terminal Ig-fold of JAM2: first Ig domain of JAM2 synthesized as a secreted protein in insect cells (protein)
chain: FSAPKDQQVVTAVEYQEAILACKTPKKTVSSRLEWKKLGRSVSFVYYQQTLQGDFKNRAEMIDFNIRIKNVTRSDAGKYRCEVSAPSEQGQNLEEDTVTLEV
modifications: left off: a dimerising Fc or GST
notes: first Ig domain of JAM2 synthesized as a secreted protein in insect cells
B6: human JAM1-Fc (Fc fusion, UniProt Q9Y624 28-238, looked up)
chain: SVTVHSSEPEVRIPENNPVKLSCAYSGFSSPRVEWKFDQGDTTRLVCYNNKITASYEDRVTFLPTGITFKSVTREDTGTYTCMVSEEGGNSYGEVKVKLIVLVPPSKPTVNIPSSATIGNRAVLTCSEQDGSPPSEYTWFKDGIVMPTNPKSTRAFSNSSYVLNPTTGELVFDPLSASDTGEYSCEARNGYGTPMTSNAVRMEAVERNVGV
notes: not shown: Fc part not described for this construct
B7: human JAM1-Fc: Fc fusion of JAM1, the human homologue of mouse JAM (protein)
chain: B6 chain
modifications: left off: a dimerising Fc or GST
notes: Fc fusion of JAM1, the human homologue of mouse JAM

Bridges are numbered along the chain shown (N, C = ends). Where no end group is shown, it is not given here.

For test [1], the target named is T1, human JAM3 (Junctional Adhesion …). Nature of the test: adhesion of calcein-loaded HSB cells to captured JAM2-Fc in TBS+Ca/Mg/Mn (FIG. 7). How it is done: In vitro adhesion assays were performed in 96 well plates essentially as described in Todderud, G., J. J. Leukoc. Biol. 52:85 (1992), herein incorporated by reference. Briefly, 50 μl of goat anti-mouse IgG2a was coated at 5 μg/ml in PBS and used to capture 4.8 pmoles of JAM2-Fc or mIgG2a (control). Various leukocyte cell lines i.e. T lymphocytes, HSB, HPB-ALL; B lymphocytes, RAMOS; monocytic cells, HL60, THP-1, and the erythroleukemic, K562 lines were labeled with calcein (Molecular Probes Inc., Eugene, Oreg.) at 50 μg/ml for 25 minutes at 37° C. with 250,000 cells/well in binding buffer that consisted of Tris buffered saline plus 1 mM each of CaCl₂, MgCl₂ and MnCl₂. Wells were washed 3×, lysed with 50 mM Tris (pH 7.5), 5 mM EDTA, 1% NP40, and fluorescence read in a Cytofluor with excitation at 485/20 nm and emission at 530/25 nm. Specific binding was calculated as fluorescence with JAM2-Fc minus fluorescence with mIgG2a. For antibody inhibition, protein captured on wells or HSB cells were incubated for 30 min at RT in binding buffer with 1:100×dilution of preimmune (normal mouse serum) or anti-JAM2 mouse polyclonal serum. […] Overall differences among experimental groups for each parameter were first assessed by one-way analysis of variance (ANOVA) and individual pairwise group comparisons were analyzed by Fisher's protected least significance difference (PLSD) post hoc test. […]

For test [2], the system named is HPB-ALL. Nature of the test: In vitro adhesion assay, calcein loaded cells on captured Fc fusion protein. Format: cell-based. The settings on record: binding buffer: TBS plus 1 mM calcium, magnesium and manganese; FIG. 7. How it is done:
(§1) Biol. 52:85 (1992), herein incorporated by reference.
(§2) The capacity of JAM2 extracellular domain to adhere to various leukocyte cell lines according to a previously established in vitro binding assay performed under static conditions was next examined (see Todderud, G., J. Leukoc, Biol. 52:85(1992)). Calcein loaded cells were allowed to interact with JAM2-Fc captured in 96 well plates in binding buffer (hereinafter “BB”) which contained TBS plus 1 mM calcium, magnesium and manganese. Non-specific binding of cells to captured mIgG2a was determined simultaneously and subtracted. […] Binding to the erythroleukemic K562 cell lines was non-existent.

In test [3] the test system is HSB cells. The test is described as above. The class given is cell-based. The method, then: as §1, §2
In test [4] the test system is K562 cell lines. The test is described as above. The class given is cell-based. The settings on record: binding buffer: TBS plus 1 mM calcium, magnesium and manganese; FIG. 7. The method, then: as §1, §2
Test [5] addresses B1. Description: the inventors' reading of the inhibition of HSB adhesion to captured JAM2-Fc by soluble JAM3 (FIG. 13A). How it is done:
(§3) JAM2-Fc adhesion to T cell lines was performed by capture of fusion protein by goat anti-mouse coated 96 well plates as described in Cunningham et al., J. Biol. Chem., 275:34750-34756 (2000). The HSB cells were loaded with calcien-AM (Molecular Probes Inc., Eugene Oreg.) and re-suspended in Tris Buffered Saline (TBS) with or without the addition of 1 mM MnCl₂. Binding to mouse IgG2a was used to subtract background. Soluble JAM3 was generated from a JAM3-Fc fusion that was digested with thrombin and purified to remove the Fc component. Neutralizing anti-JAM3 polyclonal serum was generated in mice using human JAM3 extracellular domain as immunogen. […] Following adhesion for 90 minutes at 37° C., wells were washed 3 times at room temperature. Adhered cells were lyzed and fluorescence quantified in a Cytofluor with excitation at 485/20 nm and emission at 530/25.
The inventors believe that soluble JAM3 ectodomain would bind to the JAM2 on the well surface and prevent its interaction with JAM3 on the HSB cell surface. It is concluded that under these conditions, that JAM2 is unable to engage α4 integrin. Therefore, a specific interaction of JAM2 with cell-surface bound JAM3 is necessary before JAM2 can bind α4 integrin. Likewise, if neutralizing anti-JAM3 antibodies are used to prevent JAM2 binding to cell surface JAM3, then JAM2 is also unable to engage integrin (FIG. 13B).

Test [6] has as its target T2, α4β1 integrin, endogenous on HSB T cells (UniProt P13612 34-1032; P05556 21-798, limits assumed).
T2 construct: whole, on cells; also called α4 integrin; alpha 4 integrin
Description: inhibition of Mn-enhanced adhesion of calcein-loaded HSB cells to captured JAM2-Fc (FIG. 12B). The method, then: as §3

Test [7] addresses T1, human JAM3 (Junctional Adhesion …). Nature of the test: adhesion of calcein-loaded HSB cells to Fc fusion protein.

T2 sequence (P13612 34-1032 limits assumed, chain 1 of 2): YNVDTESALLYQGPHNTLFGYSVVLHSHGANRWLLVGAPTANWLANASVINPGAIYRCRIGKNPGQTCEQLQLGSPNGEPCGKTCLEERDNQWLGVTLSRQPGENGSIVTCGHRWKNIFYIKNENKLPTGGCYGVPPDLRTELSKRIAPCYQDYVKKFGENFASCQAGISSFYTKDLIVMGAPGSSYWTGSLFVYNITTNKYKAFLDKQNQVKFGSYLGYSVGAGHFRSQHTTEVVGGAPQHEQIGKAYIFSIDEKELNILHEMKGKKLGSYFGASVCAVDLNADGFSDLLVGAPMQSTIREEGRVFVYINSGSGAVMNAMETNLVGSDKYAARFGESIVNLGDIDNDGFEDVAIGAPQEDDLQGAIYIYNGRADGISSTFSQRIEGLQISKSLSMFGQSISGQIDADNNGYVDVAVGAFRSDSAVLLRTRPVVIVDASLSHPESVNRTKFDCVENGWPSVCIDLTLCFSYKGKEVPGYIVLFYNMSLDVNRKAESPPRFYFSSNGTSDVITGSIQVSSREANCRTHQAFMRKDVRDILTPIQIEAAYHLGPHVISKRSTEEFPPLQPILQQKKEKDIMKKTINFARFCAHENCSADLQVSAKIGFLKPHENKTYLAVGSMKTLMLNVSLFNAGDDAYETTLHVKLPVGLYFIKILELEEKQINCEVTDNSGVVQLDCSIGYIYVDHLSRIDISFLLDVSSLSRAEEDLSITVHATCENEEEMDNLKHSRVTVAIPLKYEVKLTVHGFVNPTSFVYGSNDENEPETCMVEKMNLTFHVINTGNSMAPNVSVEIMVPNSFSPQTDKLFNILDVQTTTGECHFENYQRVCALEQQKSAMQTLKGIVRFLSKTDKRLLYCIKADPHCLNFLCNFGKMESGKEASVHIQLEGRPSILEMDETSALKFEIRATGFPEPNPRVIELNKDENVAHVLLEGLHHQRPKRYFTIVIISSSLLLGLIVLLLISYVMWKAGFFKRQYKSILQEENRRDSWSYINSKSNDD
T2 sequence (P05556 21-798 limits assumed, chain 2 of 2): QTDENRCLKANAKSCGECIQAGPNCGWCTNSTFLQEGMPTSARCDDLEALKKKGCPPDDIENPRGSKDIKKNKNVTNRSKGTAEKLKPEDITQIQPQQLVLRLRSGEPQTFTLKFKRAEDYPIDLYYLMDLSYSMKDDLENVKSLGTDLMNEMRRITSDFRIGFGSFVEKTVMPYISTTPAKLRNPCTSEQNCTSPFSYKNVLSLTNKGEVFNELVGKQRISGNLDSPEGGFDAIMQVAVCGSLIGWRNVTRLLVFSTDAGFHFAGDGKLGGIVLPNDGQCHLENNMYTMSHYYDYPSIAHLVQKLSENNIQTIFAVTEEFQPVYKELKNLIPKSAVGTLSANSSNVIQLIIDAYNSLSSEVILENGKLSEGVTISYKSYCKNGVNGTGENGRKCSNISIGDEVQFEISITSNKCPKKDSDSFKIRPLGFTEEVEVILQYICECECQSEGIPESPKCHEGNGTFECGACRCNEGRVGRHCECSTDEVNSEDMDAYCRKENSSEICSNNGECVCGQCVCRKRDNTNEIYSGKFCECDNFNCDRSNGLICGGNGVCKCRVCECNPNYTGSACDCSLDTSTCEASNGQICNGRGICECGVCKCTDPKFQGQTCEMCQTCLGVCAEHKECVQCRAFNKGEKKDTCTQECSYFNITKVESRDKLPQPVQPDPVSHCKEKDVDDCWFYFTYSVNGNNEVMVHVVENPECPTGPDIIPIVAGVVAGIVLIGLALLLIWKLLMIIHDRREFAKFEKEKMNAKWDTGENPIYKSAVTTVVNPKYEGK

Regarding B1, the binding result in test [1] was “binds”.
For the molecule B2, the “capture of HPB-ALL cells” value in test [2] is “quite efficiently”. Further, the “capture of HSB cells” value in test [3] (binding buffer: TBS plus 1 mM calcium, magnesium and manganese, FIG. 7) is “quite efficiently”. Further, the “binding to K562 cells” value in test [4] is reported as “non-existent”.
On to B3, for which, in test [5], the binding result is “binds”.
For orientation: IC50 means the concentration at which inhibition is half-maximal. In the case of B4, the IC50 in test [6] was approximately 60 nM.
On to B5, for which the “adhesion to HSB cells” value in test [3] (TBS and TBS+Mn, FIG. 10) is “capable of adhering to HSB cells”.
Regarding B6, in test [7], the binding result is on record as “no binding”.
On to B7, for which the “binding of calcein loaded HSB cells” value in test [3] is on record as “unable to bind”.
